Results reported in patent publication US9850292B2, “Compositions which regulate the epithelial brush border Na+/H+ exchanger NHE3 and their methods of use in gastrointestinal disease” (THE JOHNS HOPKINS UNIVERSITY, priority 2012, dated 2017).
Where two headings read alike, the source gives them in different places. The star is where a group is joined. Biotin = O=C1N[C@H]2[C@H](CS[C@H]2CCCCC(=O)*)N1

Tests used:
[1] = tested on: murine jejunum exposed to cholera toxin; conditions: mouse, in vivo
rabbit NHE3 (rNHE3) [2] = target: T1, rabbit NHE3 (rNHE3) (Oryctolagus cuniculus, UniProt P26432); type: cell-based; design: amplified from pcDNA 3.1 containing the full-length NHE3V (pcDNA 3.1/NHE3V); expressed in transfected cells
T1 sequence (P26432 30-832): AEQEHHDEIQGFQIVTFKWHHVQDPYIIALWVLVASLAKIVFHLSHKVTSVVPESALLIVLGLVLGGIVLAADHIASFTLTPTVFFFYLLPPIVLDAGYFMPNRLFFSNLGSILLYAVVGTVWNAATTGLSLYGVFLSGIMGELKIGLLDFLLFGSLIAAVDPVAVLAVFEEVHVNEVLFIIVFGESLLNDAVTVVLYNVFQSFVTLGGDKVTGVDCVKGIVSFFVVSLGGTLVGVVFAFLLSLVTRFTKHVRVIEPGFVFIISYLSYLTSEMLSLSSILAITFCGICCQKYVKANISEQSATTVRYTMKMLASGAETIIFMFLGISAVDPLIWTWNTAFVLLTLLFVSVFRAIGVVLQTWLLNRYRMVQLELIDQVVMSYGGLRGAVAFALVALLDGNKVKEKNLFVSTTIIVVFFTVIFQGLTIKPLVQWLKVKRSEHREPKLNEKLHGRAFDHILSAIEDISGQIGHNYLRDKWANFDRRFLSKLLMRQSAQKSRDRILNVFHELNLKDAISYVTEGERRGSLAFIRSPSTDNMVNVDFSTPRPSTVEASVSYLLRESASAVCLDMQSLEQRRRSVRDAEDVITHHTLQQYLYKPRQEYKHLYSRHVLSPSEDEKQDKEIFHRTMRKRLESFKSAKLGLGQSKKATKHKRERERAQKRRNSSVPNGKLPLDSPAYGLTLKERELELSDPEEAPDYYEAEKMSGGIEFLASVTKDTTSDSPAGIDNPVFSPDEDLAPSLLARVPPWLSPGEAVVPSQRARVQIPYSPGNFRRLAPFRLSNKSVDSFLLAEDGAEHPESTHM

NHE3 = target: T2, NHE3 (Mus musculus, UniProt G3X939); assay: NHE3 activity in mouse jejunum in vitro, BCECF/microscopy; type: cell-based; conditions: FIG. 4B
T2 construct: from tissue; host or cells: mouse jejunum, exposed in vitro
T2 sequence (G3X939 27-829): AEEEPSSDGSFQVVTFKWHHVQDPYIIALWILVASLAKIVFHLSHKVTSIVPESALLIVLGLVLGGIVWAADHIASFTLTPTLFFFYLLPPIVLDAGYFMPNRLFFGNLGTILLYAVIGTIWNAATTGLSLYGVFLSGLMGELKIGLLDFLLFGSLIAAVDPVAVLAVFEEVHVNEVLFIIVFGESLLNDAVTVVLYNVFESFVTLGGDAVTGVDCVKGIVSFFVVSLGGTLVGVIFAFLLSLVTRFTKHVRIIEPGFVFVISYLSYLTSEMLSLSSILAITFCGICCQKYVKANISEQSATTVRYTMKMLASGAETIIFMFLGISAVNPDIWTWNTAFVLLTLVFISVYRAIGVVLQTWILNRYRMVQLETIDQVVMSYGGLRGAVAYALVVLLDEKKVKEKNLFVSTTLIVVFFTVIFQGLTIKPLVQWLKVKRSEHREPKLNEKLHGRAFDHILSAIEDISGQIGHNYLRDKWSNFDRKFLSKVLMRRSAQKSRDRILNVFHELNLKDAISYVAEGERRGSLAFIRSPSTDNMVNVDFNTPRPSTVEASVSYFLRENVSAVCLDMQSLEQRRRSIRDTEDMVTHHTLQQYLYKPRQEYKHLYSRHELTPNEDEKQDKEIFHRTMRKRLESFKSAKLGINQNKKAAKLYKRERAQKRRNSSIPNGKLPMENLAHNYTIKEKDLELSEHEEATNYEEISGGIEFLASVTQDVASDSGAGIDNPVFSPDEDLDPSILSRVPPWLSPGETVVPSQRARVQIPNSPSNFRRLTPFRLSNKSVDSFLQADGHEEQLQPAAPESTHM
Description: (§1) FIG. 4A is a bar graph depicting the results when Caco-2/HA-NHE3 cells were exposed to IRCX-CP (400 nM) for 15 minutes then basal, carbachol (cch) (10 μM) inhibited and EGF (200 ng/ml) stimulated NHE3 were determined (n=4). FIG. 4B is another bar graph depicting the effects when mouse jejunum was exposed in vitro to IRCX-CP (400 nM) and/or forskolin (10 μM) for 15 minutes with NHE3 activity determined by BCECF.
The fluorescent peptides described above were then loaded into PS120/NHERF2/NHE3, Caco2/NHE3 cells, and mouse small intestine. It was established that loading reaches a maximum in 15 minutes (37° C.) (FIG. 3) and is stable for at least 6 hours. To evaluate the effect of these peptides on NHE3 regulation, PS120 and Caco-2 cells were exposed to 400-1600 nM Bodipy 577/618-peptide and used BCECF/fluorometry to characterize the peptide's effects on basal NHE3 activity and after Ca^2+ elevation and EGF exposure. In studies in both cell types, all peptide concentrations studied stimulated basal NHE3 activity by about 40%, and reduced Ca^2+ inhibition of NHE3 by about 50% in PS 120 cells (data not shown) and entirely in Caco-2 cells (FIG. 4A).

rabbit NHE3 (rNHE3) [3] = target: T1, rabbit NHE3 (rNHE3); assay: BCECF/fluorometry Na+/H+ exchange activity in Caco-2 cells; type: cell-based; design: expressed in transfected cells; host or cells: Caco-2BBe cells, transient adenoviral infection (ADLOX.HTM shuttle vector, CMV promoter)
Description: as §1
Cell Lines. PS120 fibroblasts lack all endogenous plasma membrane NHEs, NHERF1 (minimal expression), NHERF2, NHERF3 and NHERF4. These cells, when stably expressing rabbit NHE3 with a C-terminal VSV-G protein epitope tag and NHERF2, are called PS120/NHE3/NHERF2 cells (or PS120/E3V/NHERF2 cells), as described (stable cell lines made using pcDNA 3.1, G418 and hygromycin, Invitrogen). Caco-2BBe cells express all four members of the NHERF gene family and small amounts NHE3 (Caco-2BBe/3HA-NHE3 cells). Triple HA-tagged rabbit NHE3 was expressed by adenovirus into Caco-2BBe cells for transport and biochemical analysis.
Adenoviral Constructs/Infection. Caco-2BBe cells which endogenously express the four members of the NHERF gene family and small amounts of NHE3 were transiently infected with triple HA-tagged rNHE3 previously engineered into replication-deficient Adeno-viral shuttle vector ADLOX.HTM under a cytomegalovirus promoter. Caco-2BBe cells were first grown on Transwell filters (Corning) until 12 days post-confluence in “Caco-2 medium.” Cells were then treated with serum-free media containing 6 mM EGTA for 2 hours at 37° C. to allow the tight junctions to open, further exposing apical and basolateral surfaces to the virus. […]
Measurement of Na^+/H^+ Exchange. Cellular Na^+/H^+ exchange activity in PS 120 cells grown to about 70% confluency on glass coverslips was determined fluorometrically using the intracellular pH-sensitive dye 2′,7′-bis(carboxyethyl)5-6-carboxyfluoresceinacetoxymethyl ester (BCECF-AM, 5μM; Molecular Probes, Eugene, Oreg.). […] At the end of each experiment, the fluorescence ratio was calibrated to pHi using the high potassium/nigericin method. Na^+/H^+ exchange activity data were calculated as the product of Na^+ dependent changes in pHi times the buffering capacity at each pHi, and individual points shown in the figures are ratios of Na^+/H^+ exchange calculated at multiple pHi values using at least three coverslips per condition in a single experiment. Kinetics of Na^+/H^+ exchange were analyzed by Hill plot using Origin (Microcal Software) to estimate Vmax and K′(H^+)i in individual experiments. Means+/−S.E.M. were determined from at least three separate experiments. […]

Row | Substance | cholera toxin fluid accumulation [1] | peptide concentration at which effects were maximum (rabbit NHE3 (rNHE3) [2]) | reduction of Ca2+ inhibition of NHE3 (rabbit NHE3 (rNHE3) [2]) | stimulation of basal NHE3 activity (rabbit NHE3 (rNHE3) [2]) | stimulation of basal NHE3 activity (NHE3; 400 nM, 15 minutes) | prevention of NHE3 inhibition by forskolin (NHE3; forskolin 10 μM, 400 nM peptide) | stimulation of basal NHE3 activity (rabbit NHE3 (rNHE3) [3]; 400-1600 nM peptide, all concentrations studied) | reduction of Ca2+ inhibition of NHE3 (rabbit NHE3 (rNHE3) [3]; after Ca2+ elevation (carbachol 10 μM), FIG. 4A) | peptide concentration at which effects were maximum (rabbit NHE3 (rNHE3) [3]; effect at saturation) | effect on NHE3 activity (rabbit NHE3 (rNHE3) [2]) | effect on NHE3 activity (rabbit NHE3 (rNHE3) [3])
1 | Bodipy 577/618-peptide: 38 aa rabbit NHE3 aa 568-605 peptide (SEQ ID NO: 1), biotin on N-terminus, C-terminus linked to Bodipy 577/618 maleimide (Biotin-NVDFSTPRPSTVEASVSYLLRESASAVCLDMQSLEQRR-{Bodipy 577/618 maleimide}; listed as Oryctolagus cuniculus) | prevented cholera toxin fluid accumulation | 400 nM | about 50% | about 40% | 60% | totally prevented | about 40% | entirely | 400 nM |  | 
2 | NVDFSTPRPSTVEASVSYLLRESASAVCLDMQSLEQRR (listed as Oryctolagus cuniculus) [peptide without Bodipy] |  |  |  |  |  |  |  |  |  | did not alter NHE3 activity | did not alter NHE3 activity
